How the values were obtained:
TFAM-CTΔ26 (human) = assay: AFM in liquid, persistence length; conditions: 100 nM CTΔ26 (33 nm) similar to 10 nM TFAM (30 nm); no looping enhancement; Footprinting: 10 mM HEPES pH 7.5, 10 mM MgCl2, 10 mM CaCl2 (so in the source), 100 mM NaCl, 1 mM TCEP, 0.1 mg/mL BSA, 32°C; AFM buffer not in material
TFAM (WT) (human) [1] = assay: AFM in liquid, fractional DNA contour coverage; conditions: effective free TFAM concentration; Footprinting: 10 mM HEPES pH 7.5, 10 mM MgCl2, 10 mM CaCl2 (so in the source), 100 mM NaCl, 1 mM TCEP, 0.1 mg/mL BSA, 32°C; AFM buffer not in material
[2] = target: TFAM-CTΔ26;POLRMT;TFB2M del221-246 (human;human?;human?) (UniProt Q00059+O00411+Q9H5Q4); assay: DNase I footprinting; conditions: Footprinting: 10 mM HEPES pH 7.5, 10 mM MgCl2, 10 mM CaCl2 (so in the source), 100 mM NaCl, 1 mM TCEP, 0.1 mg/mL BSA, 32°C; AFM buffer not in material
TFAM (WT) (human) [3] = target: T1, TFAM (WT) (human) (UniProt Q00059); assay: DNase I footprinting; conditions: Footprinting: 10 mM HEPES pH 7.5, 10 mM MgCl2, 10 mM CaCl2 (so in the source), 100 mM NaCl, 1 mM TCEP, 0.1 mg/mL BSA, 32°C; AFM buffer not in material
T1 sequence: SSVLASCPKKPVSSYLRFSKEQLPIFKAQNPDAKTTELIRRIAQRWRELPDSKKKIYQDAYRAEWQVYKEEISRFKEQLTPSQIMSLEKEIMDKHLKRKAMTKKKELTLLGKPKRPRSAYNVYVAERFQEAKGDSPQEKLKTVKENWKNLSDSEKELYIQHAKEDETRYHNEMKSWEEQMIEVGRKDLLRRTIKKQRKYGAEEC

TFAM-CTΔ26;POLRMT;TFB2M del221-246 (human;human?;human?), sequence (O00411 42-1230, stated change not applied, chain 2 of 2): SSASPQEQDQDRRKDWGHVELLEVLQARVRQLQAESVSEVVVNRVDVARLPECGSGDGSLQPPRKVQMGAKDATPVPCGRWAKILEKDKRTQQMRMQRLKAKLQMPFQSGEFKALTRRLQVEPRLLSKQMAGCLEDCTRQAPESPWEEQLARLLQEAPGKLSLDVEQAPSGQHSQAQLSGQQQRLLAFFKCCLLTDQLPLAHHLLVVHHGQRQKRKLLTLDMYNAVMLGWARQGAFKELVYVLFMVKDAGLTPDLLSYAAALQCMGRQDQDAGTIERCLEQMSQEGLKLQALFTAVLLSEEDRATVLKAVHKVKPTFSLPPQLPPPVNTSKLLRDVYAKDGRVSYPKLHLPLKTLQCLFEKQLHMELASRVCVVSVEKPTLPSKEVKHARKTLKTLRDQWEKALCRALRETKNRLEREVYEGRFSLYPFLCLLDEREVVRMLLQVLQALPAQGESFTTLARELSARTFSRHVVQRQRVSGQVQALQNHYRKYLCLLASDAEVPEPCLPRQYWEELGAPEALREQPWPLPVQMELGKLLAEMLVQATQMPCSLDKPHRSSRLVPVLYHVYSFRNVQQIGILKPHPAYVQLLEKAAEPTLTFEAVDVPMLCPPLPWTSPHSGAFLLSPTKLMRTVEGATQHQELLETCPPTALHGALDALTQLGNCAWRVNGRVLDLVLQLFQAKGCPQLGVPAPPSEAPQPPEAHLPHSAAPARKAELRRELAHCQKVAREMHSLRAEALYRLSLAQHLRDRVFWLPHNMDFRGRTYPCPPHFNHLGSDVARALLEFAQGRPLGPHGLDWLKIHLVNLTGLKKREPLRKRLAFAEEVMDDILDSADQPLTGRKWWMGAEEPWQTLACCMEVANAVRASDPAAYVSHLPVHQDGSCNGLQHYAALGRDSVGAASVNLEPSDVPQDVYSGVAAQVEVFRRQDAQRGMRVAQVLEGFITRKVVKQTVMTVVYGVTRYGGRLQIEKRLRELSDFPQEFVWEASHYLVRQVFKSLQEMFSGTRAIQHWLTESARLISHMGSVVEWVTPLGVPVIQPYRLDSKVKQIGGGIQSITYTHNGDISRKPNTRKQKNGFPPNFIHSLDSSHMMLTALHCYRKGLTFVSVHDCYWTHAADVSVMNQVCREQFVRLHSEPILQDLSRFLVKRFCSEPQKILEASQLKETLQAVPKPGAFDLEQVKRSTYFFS
TFAM-CTΔ26;POLRMT;TFB2M del221-246 (human;human?;human?), sequence (Q9H5Q4 20-396, stated change not applied, chain 3 of 2): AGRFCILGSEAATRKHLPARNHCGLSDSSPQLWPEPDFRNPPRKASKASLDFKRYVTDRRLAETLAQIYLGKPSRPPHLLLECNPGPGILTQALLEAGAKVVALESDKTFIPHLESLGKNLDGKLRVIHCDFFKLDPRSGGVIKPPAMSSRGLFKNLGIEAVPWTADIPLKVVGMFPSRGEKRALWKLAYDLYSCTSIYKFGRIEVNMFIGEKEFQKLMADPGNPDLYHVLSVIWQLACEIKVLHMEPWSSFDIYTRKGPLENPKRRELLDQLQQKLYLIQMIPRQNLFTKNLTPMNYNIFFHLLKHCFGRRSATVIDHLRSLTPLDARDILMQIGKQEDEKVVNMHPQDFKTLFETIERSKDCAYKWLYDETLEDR

| Substance | binding signal (fold weaker than WT TFAM) (TFAM-CTΔ26 (human)) | Kd (TFAM (WT) (human) [1]) [nM] | binding [2] | binding (TFAM (WT) (human) [3]) |
| --- | --- | --- | --- | --- |
| mtDNA construct (AFM) | 10 | 59 | – | – |
| puc18 control construct (AFM) | – | 200 | – | – |
| ATTGCTTTGAGGAGGTAAGCTACATAAACTGTGGGGGGTGTCTTTGGGGTTTGGTTGGTTCGGGGTATGGGGTTAGCAGCGGTGTGTGTGTGCTGGGTAGGATGGGCGGGGGTTGTATTGATGAGATTAGTAGTATGGGAGTGGGAGGGGAAAATAATGTGTTAGTTGGGGGGTGACTGTTAAAAGTGCATACCGCCAAAAGATAAAATTTGAAATCTGGTTAGGCTGGTGTT (double strand) [dual promoter template (DPT-WT)] | – | – | binds more weakly | binds |
